Data: patent US20150086555A1

B1: TCN-523 (5248_A17) (antibody, V domains shown)
VH: QVQLVQSGAEVKKPGSSVKVSCKASGGSFSNYAFSWVRQAPGQGLEWMGGTIPLLGTTNYAQKFQGRVTISADQFTSTAYMELGSLRSEDTAVYYCTRRKMTTAFDSWGQGTLVTVSS
VL: QPVLTQPPSASASLGASVTLTCTLSSAYSNYKVDWYQQRPGKGPRFVMRVGTGGIVGSKGDGIPDRFSVLGSGLNRYLTIKNIQEEDESDYHCGADHGSGSNFVSPYVFGGGTKLTVL
B2: TCN-504 (3251_K17) (antibody, V domains shown)
VH: QVQLQESGPGLVKPSETLSLTCAVSGVSISNIDFYWGWIRQPPGKGLEWIGNIYYTGITFYNPSLSSRVAISIDTSKNQFSLTLTSVTAADTAMYYCARHYGDSEAINDAFDIWGQGTMLTVSS
VL: EIVMTQSPATLSVSPGERATLSCRASQSVGNSLAWYQQRPGQAPRLLIYGASTRATGIPPRFSGSGSGTEFTLTISSLQTEDFAVYYCQQYINWRPLSFGGGTKVEIK

Experiments:
Conditions in all cases: remark: other sources report otherwise
[1] = molecular target: recombinant soluble homotrimeric HA of A/Hong Kong/1073/99 (H9N2) (Influenza A virus A/Hong Kong/1073/99 (H9N2)); test: trimeric HA microarray, transfection supernatant set 1
[2] = molecular target: recombinant soluble homotrimeric HA of A/Hong Kong/2108/03 (H9N2) (Influenza A virus A/HK/2108/2003(H9N2)); test: as above
[3] = molecular target: recombinant soluble homotrimeric HA of A/northern shoveler/California/HKWF115/07 (H6) (Influenza A virus A/northern shoveler/California/HKWF115/2007(H6N1)); test: as above
[4] = molecular target: recombinant soluble homotrimeric HA of A/Anhui/1/05 (H5N1) (Influenza A virus A/Anhui/1/2005(H5N1)); test: HA microarray, control antibody
[5] = molecular target: recombinant soluble homotrimeric HA of A/California/4/09 (H1N1) (Influenza A virus A/California/04/2009(H1N1)); test: HA microarray, control antibody
[6] = molecular target: recombinant soluble homotrimeric HA of A/Egypt/3300-NAMRU3/08 (H5N1) (Influenza A virus A/Egypt/3300-NAMRU3/2008(H5N1)); test: HA microarray, control antibody
[7] = molecular target: recombinant soluble homotrimeric HA of A/Indonesia/5/05 (H5N1) (Influenza A virus A/Indonesia/5/2005(H5N1)); test: HA microarray, control antibody
[8] = molecular target: recombinant soluble homotrimeric HA of A/Japan/305/57 (H2N2) (Influenza A virus A/Japan/305/1957(H2N2)); test: HA microarray, control antibody
[9] = molecular target: recombinant soluble homotrimeric HA of A/Netherlands/219/03 (H7N7) (Influenza A virus A/Netherlands/219/03(H7N7)); test: HA microarray, control antibody
[10] = molecular target: recombinant soluble homotrimeric HA of A/Solomon Islands/3/06 (H1N1) (Influenza A virus A/Solomon Islands/3/2006(H1N1)); test: HA microarray, control antibody
[11] = molecular target: recombinant soluble homotrimeric HA of A/Vietnam/1203/04 (H5N1) (Influenza A virus A/VietNam/1203/2004(H5N1)); test: HA microarray, control antibody
[12] = molecular target: T1, recombinant soluble homotrimeric HA of A/Wisconsin/67/05 (H3N2) (Influenza A virus A/Wisconsin/67/2005(H3N2)); test: HA microarray, control antibody
[13] = molecular target: recombinant soluble homotrimeric HA of A/chicken/Vietnam/NCVD-016/08 (H5N1) (Influenza A virus A/chicken/Vietnam/NCVD-016/2008(H5N1)); test: HA microarray, control antibody
[14] = molecular target: recombinant soluble homotrimeric HA of A/duck/Yangzhou/02/05 (H8N4) (Influenza A virus A/duck/Yangzhou/02/2005(H8N4)); test: HA microarray, control antibody
[15] = molecular target: recombinant soluble homotrimeric HA of A/swine/Ontario/01911-2/99 (H4N6) (Influenza A virus A/Swine/Ontario/01911-2/99 (H4N6)); test: HA microarray, control antibody
[16] = molecular target: T1, recombinant soluble homotrimeric HA of …; test: trimeric HA microarray, transfection supernatant set 1

Row | Binder | Trimeric HA Binding: RLU [1] | Trimeric HA Binding: RLU [2] | Trimeric HA Binding: RLU [3] | Trimeric HA Binding: RLU [4] | Trimeric HA Binding: RLU [5] | Trimeric HA Binding: RLU [6] | Trimeric HA Binding: RLU [7] | Trimeric HA Binding: RLU [8] | Trimeric HA Binding: RLU [9] | Trimeric HA Binding: RLU [10] | Trimeric HA Binding: RLU [11] | Trimeric HA Binding: RLU [12] | Trimeric HA Binding: RLU [13] | Trimeric HA Binding: RLU [14] | Trimeric HA Binding: RLU [15] | Trimeric HA Binding: RLU [16]
1 | B1 | 21700 RLU | 41 RLU | 9050 RLU |  |  |  |  |  |  |  |  |  |  |  |  | 
2 | B2 |  |  |  | 26200 RLU | 3330 RLU | 44400 RLU | 43300 RLU | 4090 RLU | 47200 RLU | 24100 RLU | 196 RLU | 40500 RLU | 38500 RLU | 14100 RLU | 14700 RLU | 14300 RLU
